Measured values reported in paper PMC4462998.

Target: FtsQ (Escherichia coli), P06136
Assay: not stated; unpublished results (Luirink and den Blaauwen); method not given
Details: remark: other sources report otherwise

Sequence of FtsQ (Escherichia coli), P06136 (P06136 whole entry): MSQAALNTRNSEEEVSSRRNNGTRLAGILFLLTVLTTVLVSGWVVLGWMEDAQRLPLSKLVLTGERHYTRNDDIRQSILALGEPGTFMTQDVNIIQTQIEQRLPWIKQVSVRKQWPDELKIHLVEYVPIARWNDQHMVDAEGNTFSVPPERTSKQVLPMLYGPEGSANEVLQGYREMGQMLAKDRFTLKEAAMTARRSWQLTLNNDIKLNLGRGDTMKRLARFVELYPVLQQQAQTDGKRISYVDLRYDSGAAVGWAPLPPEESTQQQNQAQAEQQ

B1: FtsL, P0AEN4 1-121 (natural protein)
chain: MISRVTEALSKVKGSMGSHERHALPGVIGDDLLRFGKLPLCLFICIILTAVTVVTTAHHTRLLTAQREQLVLERDALDIEWRNLILEENALGDHSRVERIATEKLQMQHVDPSQENIVVQK
B1 showed a stoichiometry N of 1.
